Results taken from paper doi:10.1101/307710, “Assignment of the resting state of the secondary active transporter BetP by integrating spectroscopic measurements and molecular simulations” (bioRxiv, 2018).

Target: the molecule itself
Assay: PELDOR (DEER) spectroscopy; spin-labelled BetP in E. coli polar lipid proteoliposomes (lipid to protein 20:1), 200 mM Tris-HCl pH 7.5 in deuterated water, with 500 mM NaCl or with 300 mM NaCl and 5 mM betaine; Q-band, four-pulse sequence; distance distributions by Tikhonov regularisation

B1: BetP G450R5/S516R5 in the background of the C252T cys-less variant (spin-labelled glycine betaine symporter BetP of Corynebacterium glutamicum) (natural protein, UniProt P54582 1-595, looked up)
chain: MTTSDPNPKPIVEDAQPEQITATEELAGLLENPTNLEGKLADAEEEIILEGEDTQASLNWSVIVPALVIVLATVVWGIGFKDSFTNFASSALSAVVDNLGWAFILFGTVFVFFIVVIAASKFGTIRLGRIDEAPEFRTVSWISMMFAAGMGIGLMFYGTTEPLTFYRNGVPGHDEHNVGVAMSTTMFHWTLHPWAIYAIVGLAIAYSTFRVGRKQLLSSAFVPLIGEKGAEGWLGKLIDILAIIATVFGTATSLGLGALQIGAGLSAANIIEDPSDWTIVGIVSVLTLAFIFSAISGVGKGIQYLSNANMVLAALLAIFVFVVGPTVSILNLLPGSIGNYLSNFFQMAGRTAMSADGTAGEWLGSWTIFYWAWWISWSPFVGMFLARISRGRSIREFILGVLLVPAGVSTVWFSIFGGTAIVFEQNGESIWGDGAAEEQLFGLLHALPGCQIMGIIAMILLGTFFITSADSASTVMGTMSQHGQLEANKWVTAAWGVATAAIGLTLLLSGGDNALCNLQNVTIVAATPFLFVVIGLMFALVKDLSNDVIYLEYREQQRFNARLARERRVHNEHRKRELAAKRRRERKASGAGKRR
modifications: R5 spin label ((1-oxyl-2,2,5,5-tetramethylpyrrolidin-3-yl)methyl methanethiosulfonate) on the cysteines introduced at positions 450 and 516
notes: Glycine betaine symporter BetP (betaine permease), Corynebacterium glutamicum; expressed from pASK-IBA5betP; cys-less C252T background with cysteines introduced at G450 and S516; also called periplasmic spin label pair; betaine permease
  binding result: binds
